Molecular target: T1, β catenin (UniProt P35222 2-781)
T1 construct: Detected with antibody Sc7199 (Santa-Cruz)
T1 sequence (looked up): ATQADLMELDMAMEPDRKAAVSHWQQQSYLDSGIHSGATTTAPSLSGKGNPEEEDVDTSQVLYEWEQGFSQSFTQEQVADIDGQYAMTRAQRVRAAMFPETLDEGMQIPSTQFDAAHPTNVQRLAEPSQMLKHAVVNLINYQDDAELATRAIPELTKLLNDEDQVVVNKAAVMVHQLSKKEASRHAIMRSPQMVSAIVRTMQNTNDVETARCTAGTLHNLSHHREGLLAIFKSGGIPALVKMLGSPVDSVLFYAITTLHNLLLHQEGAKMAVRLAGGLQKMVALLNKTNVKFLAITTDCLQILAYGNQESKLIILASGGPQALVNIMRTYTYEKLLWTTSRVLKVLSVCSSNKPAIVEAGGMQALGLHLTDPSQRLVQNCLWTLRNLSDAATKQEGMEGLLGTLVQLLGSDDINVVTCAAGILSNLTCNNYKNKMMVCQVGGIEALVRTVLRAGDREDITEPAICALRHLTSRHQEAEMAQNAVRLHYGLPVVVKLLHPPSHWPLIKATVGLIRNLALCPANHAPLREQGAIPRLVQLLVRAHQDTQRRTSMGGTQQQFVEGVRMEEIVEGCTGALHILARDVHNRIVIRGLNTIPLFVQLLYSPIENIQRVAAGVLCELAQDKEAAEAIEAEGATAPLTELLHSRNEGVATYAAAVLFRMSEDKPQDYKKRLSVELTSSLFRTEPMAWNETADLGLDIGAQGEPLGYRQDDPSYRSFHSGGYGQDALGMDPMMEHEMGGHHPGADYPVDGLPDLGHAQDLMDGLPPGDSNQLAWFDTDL
Test: in situ prox-HCR and in situ PLA on DLD1 cells and colon tissue
Protocol: For in situ PLA experiments the DuoLink kit (Olink Bioscience) was used according to manufacturer recommendations. Briefly DLD1 cells were rehydrated and permeabilized as described for prox-HCR. […] Cells were washed with DuoLink Wash buffer A two time for 5 min and incubated with proximity probes (PLUS and MINUS, Olink Bioscience) in antibody diluent (Olink Bioscience) for 1 h at 37° C. After a new round of washing steps ligation mix was applied to the cells and incubated for 30 min at 37° C. Additional washing was followed by RCA and fluorescent detection of the rolling circle products. Cells were counterstained with Hoechst and mounted as described above.
Fresh frozen healthy colon tissue was fixed using 3.7% formaldehyde solution at RT for 15 min. Slides were washed with PBS twice and then blocked using Duolink blocking reagent for 60 min at 37° C. […] The next day the slides were washed with PBS 3×2 min and blocked again for 30 min. The slides were incubated with proximity-probes directed against mouse and rabbit IgG for 1 h at 37° C. in HCR buffer. After two more washes with HCR buffer the slides were incubated with activator oligonucleotides for 30 min at 37° C. Slides were washed again twice with HCR buffer and slides were incubated with 20 nM HCR hairpins in HCR buffer for 1 h at 37° C. […]

binding result: binds
B1: E-cadherin (receptor, UniProt P12830 155-882, looked up)
chain: DWVIPPISCPENEKGPFPKNLVQIKSNKDKEGKVFYSITGQGADTPPVGVFIIERETGWLKVTEPLDRERIATYTLFSHAVSSNGNAVEDPMEILITVTDQNDNKPEFTQEVFKGSVMEGALPGTSVMEVTATDADDDVNTYNAAIAYTILSQDPELPDKNMFTINRNTGVISVVTTGLDRESFPTYTLVVQAADLQGEGLSTTATAVITVTDTNDNPPIFNPTTYKGQVPENEANVVITTLKVTDADAPNTPAWEAVYTILNDDGGQFVVTTNPVNNDGILKTAKGLDFEAKQQYILHVAVTNVVPFEVSLTTSTATVTVDVLDVNEAPIFVPPEKRVEVSEDFGVGQEITSYTAQEPDTFMEQKITYRIWRDTANWLEINPDTGAISTRAELDREDFEHVKNSTYTALIIATDNGSPVATGTGTLLLILSDVNDNAPIPEPRTIFFCERNPKPQVINIIDADLPPNTSPFTAELTHGASANWTIQYNDPTQESIILKPKMALEVGDYKINLKLMDNQNKDQVTTLEVSVCDCEGAAGVCRKAQPVEAGLQIPAILGILGGILALLILILLLLLFLRRRAVVKEPLLPPEDDTRDNVYYYDEEGGGEEDQDFDLSQLHRGLDARPEVTRNDVAPTLMSVPRYLPRPANPDEIGNFIDENLKAADTDPTAPPYDSLLVFDYEGSGSEAASLSSLNSSESDKDQDYDYLNEWGNRFKKLADMYGGGEDD
notes: whole, on cells; Detected with antibody 610182 (BD Biosciences)

Reference: patent US20170009278A1 (NAVINCI DIAGNOSTICS, published 2017)
